Legend:
[1] = target: human EGFR (huEGFR) over-expressed on mcl-1-/- mouse embryonic fibroblasts (human, UniProt P00533 25-1210); experiment: cell-based or functional assay
[2] = target: EGFR on EGFR positive non-small cell lung cancer cells NCI-H1650 (UniProt P00533 25-1210); experiment: cell-based or functional assay

| Binder | huEGFR+ mcl-1-/- MEF EC50 [1] | H1650 CTG-3D EC50 [2] | H1650 GFP Flourescence EC50 [2] |
| --- | --- | --- | --- |
| AbA-CZ (antibody, human IgG1, kappa, V domains shown, synthon CZ on reduced interchain cysteines; average DAR 3.2 per ADC) VH: EVQLQESGPGLVKPSQTLSLTCTVSGYSISRDFAWNWIRQPPGKGLEWMGYISYNGNTRYQPSLKSRITISRDTSKNQFFLKLNSVTAADTATYYCVTASRGFPYWGQGTLVTVSS VL: DIQMTQSPSSMSVSVGDRVTITCHSSQDINSNIGWLQQKPGKSFKGLIYHGTNLDDGVPSRFSGSGSGTDYTLTISSLQPEDFATYYCVQYAQFPWTFGGGTKLEIKR | 0.3 nM | 0.88 µg/mL | 1.24 µg/mL |
| AbA-YY (antibody, human IgG1, kappa, V domains shown, synthon YY on reduced interchain cysteines; average DAR 2.2 per ADC) VH: EVQLQESGPGLVKPSQTLSLTCTVSGYSISRDFAWNWIRQPPGKGLEWMGYISYNGNTRYQPSLKSRITISRDTSKNQFFLKLNSVTAADTATYYCVTASRGFPYWGQGTLVTVSS VL: DIQMTQSPSSMSVSVGDRVTITCHSSQDINSNIGWLQQKPGKSFKGLIYHGTNLDDGVPSRFSGSGSGTDYTLTISSLQPEDFATYYCVQYAQFPWTFGGGTKLEIKR | 460 nM | > 40 µg/mL | 7.85 µg/mL |
| AbA-KZ (antibody, human IgG1, kappa, V domains shown, synthon KZ on reduced interchain cysteines; average DAR 2 per ADC) VH: EVQLQESGPGLVKPSQTLSLTCTVSGYSISRDFAWNWIRQPPGKGLEWMGYISYNGNTRYQPSLKSRITISRDTSKNQFFLKLNSVTAADTATYYCVTASRGFPYWGQGTLVTVSS VL: DIQMTQSPSSMSVSVGDRVTITCHSSQDINSNIGWLQQKPGKSFKGLIYHGTNLDDGVPSRFSGSGSGTDYTLTISSLQPEDFATYYCVQYAQFPWTFGGGTKLEIKR | 152 nM | > 40 µg/mL | 29.3 µg/mL |
| AbA-SR (antibody, human IgG1, kappa, V domains shown, synthon SR on reduced interchain cysteines; average DAR 2.3 per ADC) VH: EVQLQESGPGLVKPSQTLSLTCTVSGYSISRDFAWNWIRQPPGKGLEWMGYISYNGNTRYQPSLKSRITISRDTSKNQFFLKLNSVTAADTATYYCVTASRGFPYWGQGTLVTVSS VL: DIQMTQSPSSMSVSVGDRVTITCHSSQDINSNIGWLQQKPGKSFKGLIYHGTNLDDGVPSRFSGSGSGTDYTLTISSLQPEDFATYYCVQYAQFPWTFGGGTKLEIKR | 5.9 nM | 2.12 µg/mL | 2.22 µg/mL |
| AbB-SE (antibody, human IgG1, kappa, V domains shown, synthon SE on reduced interchain cysteines; average DAR 2.2 per ADC) VH: EVQLQESGPGLVKPSQTLSLTCTVSGYSISNDFAWNWIRQPPGKGLEWMGYISYKGNTRYQPSLKSRITISRDTSKNQFFLKLNSVTAADTATYYCVTASRGFPWWGQGTLVTVSS VL: DIQMTQSPSSMSVSVGDRVTITCHSSQDINSNIGWLQQKPGKSFKGLIYHGTNLDDGVPSRFSGSGSGTDYTLTISSLQPEDFATYYCVQYAQFPWTFGGGTKLEIKR | 39 nM | 0.59 µg/mL | 2.18 µg/mL |
| AbA-YG (antibody, human IgG1, kappa, V domains shown, synthon YG on reduced interchain cysteines; average DAR 1.9 per ADC) VH: EVQLQESGPGLVKPSQTLSLTCTVSGYSISRDFAWNWIRQPPGKGLEWMGYISYNGNTRYQPSLKSRITISRDTSKNQFFLKLNSVTAADTATYYCVTASRGFPYWGQGTLVTVSS VL: DIQMTQSPSSMSVSVGDRVTITCHSSQDINSNIGWLQQKPGKSFKGLIYHGTNLDDGVPSRFSGSGSGTDYTLTISSLQPEDFATYYCVQYAQFPWTFGGGTKLEIKR | 6.4 nM | 3.8 µg/mL | 2.84 µg/mL |
| AbA-SE (antibody, human IgG1, kappa, V domains shown, synthon SE on reduced interchain cysteines; average DAR 2.8 per ADC) VH: EVQLQESGPGLVKPSQTLSLTCTVSGYSISRDFAWNWIRQPPGKGLEWMGYISYNGNTRYQPSLKSRITISRDTSKNQFFLKLNSVTAADTATYYCVTASRGFPYWGQGTLVTVSS VL: DIQMTQSPSSMSVSVGDRVTITCHSSQDINSNIGWLQQKPGKSFKGLIYHGTNLDDGVPSRFSGSGSGTDYTLTISSLQPEDFATYYCVQYAQFPWTFGGGTKLEIKR | 105 nM | 4 µg/mL | 4.23 µg/mL |
| AbB-SR (antibody, human IgG1, kappa, V domains shown, synthon SR on reduced interchain cysteines; average DAR 2.1 per ADC) VH: EVQLQESGPGLVKPSQTLSLTCTVSGYSISNDFAWNWIRQPPGKGLEWMGYISYKGNTRYQPSLKSRITISRDTSKNQFFLKLNSVTAADTATYYCVTASRGFPWWGQGTLVTVSS VL: DIQMTQSPSSMSVSVGDRVTITCHSSQDINSNIGWLQQKPGKSFKGLIYHGTNLDDGVPSRFSGSGSGTDYTLTISSLQPEDFATYYCVQYAQFPWTFGGGTKLEIKR | 7 nM | 0.62 µg/mL | 2.1 µg/mL |
| AbB-KZ (antibody, human IgG1, kappa, V domains shown, synthon KZ on reduced interchain cysteines; average DAR 1.9 per ADC) VH: EVQLQESGPGLVKPSQTLSLTCTVSGYSISNDFAWNWIRQPPGKGLEWMGYISYKGNTRYQPSLKSRITISRDTSKNQFFLKLNSVTAADTATYYCVTASRGFPWWGQGTLVTVSS VL: DIQMTQSPSSMSVSVGDRVTITCHSSQDINSNIGWLQQKPGKSFKGLIYHGTNLDDGVPSRFSGSGSGTDYTLTISSLQPEDFATYYCVQYAQFPWTFGGGTKLEIKR | 55 nM | 16.5 µg/mL | 37.7 µg/mL |
| AbA-XW (antibody, human IgG1, kappa, V domains shown, synthon XW on reduced interchain cysteines; average DAR 3.7 per ADC) VH: EVQLQESGPGLVKPSQTLSLTCTVSGYSISRDFAWNWIRQPPGKGLEWMGYISYNGNTRYQPSLKSRITISRDTSKNQFFLKLNSVTAADTATYYCVTASRGFPYWGQGTLVTVSS VL: DIQMTQSPSSMSVSVGDRVTITCHSSQDINSNIGWLQQKPGKSFKGLIYHGTNLDDGVPSRFSGSGSGTDYTLTISSLQPEDFATYYCVQYAQFPWTFGGGTKLEIKR | 32 nM | > 40 µg/mL | > 40 µg/mL |
| AbA-AAA (antibody, human IgG1, kappa, V domains shown, synthon AAA on reduced interchain cysteines; average DAR 2 per ADC) VH: EVQLQESGPGLVKPSQTLSLTCTVSGYSISRDFAWNWIRQPPGKGLEWMGYISYNGNTRYQPSLKSRITISRDTSKNQFFLKLNSVTAADTATYYCVTASRGFPYWGQGTLVTVSS VL: DIQMTQSPSSMSVSVGDRVTITCHSSQDINSNIGWLQQKPGKSFKGLIYHGTNLDDGVPSRFSGSGSGTDYTLTISSLQPEDFATYYCVQYAQFPWTFGGGTKLEIKR | 220 nM | 0.65 µg/mL | 0.98 µg/mL |

The next lines start with the values.

| huEGFR+ mcl-1-/- MEF EC50 [1] | H1650 CTG-3D EC50 [2] | H1650 GFP Flourescence EC50 [2] | Binder |
| --- | --- | --- | --- |
| 19 nM | > 40 µg/mL | > 40 µg/mL | AbG-XW (antibody, human IgG1, kappa, V domains shown, synthon XW on reduced interchain cysteines; average DAR 3.7 per ADC) VH: EVQLQESGPGLVKPSQTLSLTCTVSGYSISNDFAWNWIRQLPGKGLEWMGYISYKGNTRYQPSLKSRITISRDTSKNQFFLKLNSVTAADTATYYCVTASRGLPYWGQGTLVTVSS VL: DIQMTQSPSSMSVSVGDRVTITCHSSQDITYNIGWLQQKPGKSFKGLIYHGANLDDGVPSRFSGSGSGTDYTLTISSLQPEDFATYYCVQYDEFPWTFGGGTKLEIKR |
| 24 nM | 0.96 µg/mL | 0.99 µg/mL | AbG-SE (antibody, human IgG1, kappa, V domains shown, synthon SE on reduced interchain cysteines; average DAR 3.8 per ADC) VH: EVQLQESGPGLVKPSQTLSLTCTVSGYSISNDFAWNWIRQLPGKGLEWMGYISYKGNTRYQPSLKSRITISRDTSKNQFFLKLNSVTAADTATYYCVTASRGLPYWGQGTLVTVSS VL: DIQMTQSPSSMSVSVGDRVTITCHSSQDITYNIGWLQQKPGKSFKGLIYHGANLDDGVPSRFSGSGSGTDYTLTISSLQPEDFATYYCVQYDEFPWTFGGGTKLEIKR |
| 7.4 nM | 0.52 µg/mL | 0.61 µg/mL | AbB-ZZ (antibody, human IgG1, kappa, V domains shown, synthon ZZ on reduced interchain cysteines; average DAR 1.1 per ADC) VH: EVQLQESGPGLVKPSQTLSLTCTVSGYSISNDFAWNWIRQPPGKGLEWMGYISYKGNTRYQPSLKSRITISRDTSKNQFFLKLNSVTAADTATYYCVTASRGFPWWGQGTLVTVSS VL: DIQMTQSPSSMSVSVGDRVTITCHSSQDINSNIGWLQQKPGKSFKGLIYHGTNLDDGVPSRFSGSGSGTDYTLTISSLQPEDFATYYCVQYAQFPWTFGGGTKLEIKR |
| 3.3 nM | 3.28 µg/mL | 1.55 µg/mL | AbB-YG (antibody, human IgG1, kappa, V domains shown, synthon YG on reduced interchain cysteines; average DAR 1.1 per ADC) VH: EVQLQESGPGLVKPSQTLSLTCTVSGYSISNDFAWNWIRQPPGKGLEWMGYISYKGNTRYQPSLKSRITISRDTSKNQFFLKLNSVTAADTATYYCVTASRGFPWWGQGTLVTVSS VL: DIQMTQSPSSMSVSVGDRVTITCHSSQDINSNIGWLQQKPGKSFKGLIYHGTNLDDGVPSRFSGSGSGTDYTLTISSLQPEDFATYYCVQYAQFPWTFGGGTKLEIKR |
| 0.65 nM | 6.92 µg/mL | 12.1 µg/mL | AbB-XW (antibody, human IgG1, kappa, V domains shown, synthon XW on reduced interchain cysteines; average DAR 3.2 per ADC) VH: EVQLQESGPGLVKPSQTLSLTCTVSGYSISNDFAWNWIRQPPGKGLEWMGYISYKGNTRYQPSLKSRITISRDTSKNQFFLKLNSVTAADTATYYCVTASRGFPWWGQGTLVTVSS VL: DIQMTQSPSSMSVSVGDRVTITCHSSQDINSNIGWLQQKPGKSFKGLIYHGTNLDDGVPSRFSGSGSGTDYTLTISSLQPEDFATYYCVQYAQFPWTFGGGTKLEIKR |
| 33 nM | 0.1 µg/mL | 0.08 µg/mL | AbG-ZT (antibody, human IgG1, kappa, V domains shown, synthon ZT on reduced interchain cysteines; average DAR 1.6 per ADC) VH: EVQLQESGPGLVKPSQTLSLTCTVSGYSISNDFAWNWIRQLPGKGLEWMGYISYKGNTRYQPSLKSRITISRDTSKNQFFLKLNSVTAADTATYYCVTASRGLPYWGQGTLVTVSS VL: DIQMTQSPSSMSVSVGDRVTITCHSSQDITYNIGWLQQKPGKSFKGLIYHGANLDDGVPSRFSGSGSGTDYTLTISSLQPEDFATYYCVQYDEFPWTFGGGTKLEIKR |
| 68 nM | 0.47 µg/mL | 0.44 µg/mL | AbG-ZZ (antibody, human IgG1, kappa, V domains shown, synthon ZZ on reduced interchain cysteines; average DAR 1.4 per ADC) VH: EVQLQESGPGLVKPSQTLSLTCTVSGYSISNDFAWNWIRQLPGKGLEWMGYISYKGNTRYQPSLKSRITISRDTSKNQFFLKLNSVTAADTATYYCVTASRGLPYWGQGTLVTVSS VL: DIQMTQSPSSMSVSVGDRVTITCHSSQDITYNIGWLQQKPGKSFKGLIYHGANLDDGVPSRFSGSGSGTDYTLTISSLQPEDFATYYCVQYDEFPWTFGGGTKLEIKR |
| 8.9 nM | 0.26 µg/mL | 0.64 µg/mL | AbB-ZT (antibody, human IgG1, kappa, V domains shown, synthon ZT on reduced interchain cysteines; average DAR 1.4 per ADC) VH: EVQLQESGPGLVKPSQTLSLTCTVSGYSISNDFAWNWIRQPPGKGLEWMGYISYKGNTRYQPSLKSRITISRDTSKNQFFLKLNSVTAADTATYYCVTASRGFPWWGQGTLVTVSS VL: DIQMTQSPSSMSVSVGDRVTITCHSSQDINSNIGWLQQKPGKSFKGLIYHGTNLDDGVPSRFSGSGSGTDYTLTISSLQPEDFATYYCVQYAQFPWTFGGGTKLEIKR |

— patent US20240199745A1, “ANTI-EGFR ANTIBODY DRUG CONJUGATES” (priority 2016, published 2024)
